Numbered stars: 1 amine (or outer) side, 2 acyl side, 3 side chain; on linkers, the order of the positions; unused ones are H or OH. Bridge positions count the residues as written; N and C are the ends. Side chains are listed from the residue outwards. Ends that are not written are not given here. * marks the point of attachment. C20 diacid = O=C(O)CCCCCCCCCCCCCCCCCCC(=O)*; γGlu = O=C(O)[C@H](CCC(=O)[*:2])N[*:1]
T1: human calcitonin receptor (human, UniProt P30988 25-474)
T1 construct: whole, on cells; also called hCTR; hCT
T1 sequence (looked up): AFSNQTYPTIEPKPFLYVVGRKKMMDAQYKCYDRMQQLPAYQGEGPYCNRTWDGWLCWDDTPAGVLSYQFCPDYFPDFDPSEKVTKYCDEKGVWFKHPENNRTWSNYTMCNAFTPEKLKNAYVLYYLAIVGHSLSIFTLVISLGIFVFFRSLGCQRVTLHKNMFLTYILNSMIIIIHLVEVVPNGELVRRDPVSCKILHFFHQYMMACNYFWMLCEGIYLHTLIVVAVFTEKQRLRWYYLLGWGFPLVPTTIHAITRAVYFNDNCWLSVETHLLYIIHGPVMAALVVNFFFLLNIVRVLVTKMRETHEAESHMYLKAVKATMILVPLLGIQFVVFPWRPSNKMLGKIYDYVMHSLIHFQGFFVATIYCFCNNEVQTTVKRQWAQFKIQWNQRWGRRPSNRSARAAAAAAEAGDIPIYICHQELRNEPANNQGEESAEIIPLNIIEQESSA

T2: rat amylin receptor (rat calcitonin receptor + rat RAMP 3) (rat, UniProt P32214 25-516; Q9JJ73 23-147)
T2 construct: whole, on cells; also called rAmylin-R; rat amylin 3(a) receptor
T2 sequence (looked up) 1: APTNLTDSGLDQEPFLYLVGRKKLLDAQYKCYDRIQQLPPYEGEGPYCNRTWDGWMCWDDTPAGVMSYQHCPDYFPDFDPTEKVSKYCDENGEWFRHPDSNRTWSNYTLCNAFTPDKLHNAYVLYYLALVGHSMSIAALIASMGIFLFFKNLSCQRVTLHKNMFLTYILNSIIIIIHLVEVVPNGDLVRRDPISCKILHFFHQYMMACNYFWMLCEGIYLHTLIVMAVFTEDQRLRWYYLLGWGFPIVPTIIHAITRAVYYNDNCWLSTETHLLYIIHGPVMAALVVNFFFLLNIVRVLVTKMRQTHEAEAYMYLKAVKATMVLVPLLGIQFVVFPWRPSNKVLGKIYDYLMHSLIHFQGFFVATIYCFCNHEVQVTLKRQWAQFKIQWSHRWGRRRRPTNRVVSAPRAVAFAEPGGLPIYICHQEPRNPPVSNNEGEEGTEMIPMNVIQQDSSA
T2 sequence (looked up) 2: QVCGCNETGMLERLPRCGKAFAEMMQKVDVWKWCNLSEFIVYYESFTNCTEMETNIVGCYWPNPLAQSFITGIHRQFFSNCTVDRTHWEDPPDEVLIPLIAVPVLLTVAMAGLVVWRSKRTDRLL

T3: rat calcitonin receptor (rat, UniProt P32214 25-516)
T3 construct: whole, on cells; also called rCTR; rat calcitonin (a) receptor
T3 sequence (looked up): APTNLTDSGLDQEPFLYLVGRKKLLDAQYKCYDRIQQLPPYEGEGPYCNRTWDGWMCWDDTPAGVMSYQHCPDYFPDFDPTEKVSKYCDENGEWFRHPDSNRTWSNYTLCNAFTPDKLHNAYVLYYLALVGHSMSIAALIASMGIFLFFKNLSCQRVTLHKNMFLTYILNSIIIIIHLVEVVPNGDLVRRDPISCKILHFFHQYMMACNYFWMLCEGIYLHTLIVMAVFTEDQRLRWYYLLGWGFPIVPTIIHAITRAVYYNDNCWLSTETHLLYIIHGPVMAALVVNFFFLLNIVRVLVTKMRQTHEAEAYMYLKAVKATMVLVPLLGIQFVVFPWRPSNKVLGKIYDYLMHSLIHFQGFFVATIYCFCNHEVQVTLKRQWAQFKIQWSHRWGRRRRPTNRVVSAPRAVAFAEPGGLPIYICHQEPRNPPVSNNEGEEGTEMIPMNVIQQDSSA


Tests used:
[1] = target: T1, human calcitonin receptor; assay: ratio of binding IC50s: human calcitonin receptor over human amylin receptor (reference)
Outline: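 Membranes (35 ng/μL final) + SPA beads, 50 mM Hepes pH 7.4 buffer with 1 mM CaCl2, 5 mM MgCl₂, 0.1% OA, 0.02% Tween20; 120 min, 25° C, shaking; centrifuged, counted; IC₅₀ by one-site binding competition.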

[2] = target: T2, rat amylin receptor (rat calcitonin …); assay: SPA competition with 125I-rat amylin, membranes of BHK cells with rat calcitonin receptor + rat RAMP3 (Assay VI)
rat calcitonin receptor [3] = target: T3, rat calcitonin receptor; assay: ratio of binding IC50s: rat calcitonin receptor over rat amylin receptor (reference)
rat calcitonin receptor [4] = target: T3, rat calcitonin receptor; assay: SPA competition with 125I-calcitonin, membranes of BHK cells with rat calcitonin receptor (Assay VIII)

Row | Ratio hCT/hAmylin binding [1] | IC50 [2] | Ratio rCT/rAmylin binding (rat calcitonin receptor [3]) | IC50 (rat calcitonin receptor [4]) | Binder
1 | 46.5 | 2.31 nM | 84.9 | 196 nM | K([γGlu-γGlu-C20 diacid])CNTATCATQRLAEFLRHSSPNFGAIPSSTNVGRNTY-NH2 (disulfide 2-7; N-terminus assumed; SMILES CC[C@H](C)[C@H](NC(=O)[C@H](C)NC(=O)CNC(=O)[C@H](Cc1ccccc1)NC(=O)[C@H](CC(N)=O)NC(=O)[C@@H]1CCCN1C(=O)[C@H](CO)NC(=O)[C@H](CO)NC(=O)[C@H](Cc1c[nH]cn1)NC(=O)[C@H](CCCNC(=N)N)NC(=O)[C@H](CC(C)C)NC(=O)[C@H](Cc1ccccc1)NC(=O)[C@H](CCC(=O)O)NC(=O)[C@H](C)NC(=O)[C@H](CC(C)C)NC(=O)[C@H](CCCNC(=N)N)NC(=O)[C@H](CCC(N)=O)NC(=O)[C@@H](NC(=O)[C@H](C)NC(=O)[C@@H]1CSSC[C@H](NC(=O)[C@@H](N)CCCCNC(=O)CC[C@H](NC(=O)CC[C@H](NC(=O)CCCCCCCCCCCCCCCCCCC(=O)O)C(=O)O)C(=O)O)C(=O)N[C@@H](CC(N)=O)C(=O)N[C@@H]([C@@H](C)O)C(=O)N[C@@H](C)C(=O)N[C@@H]([C@@H](C)O)C(=O)N1)[C@@H](C)O)C(=O)N1CCC[C@H]1C(=O)N[C@@H](CO)C(=O)N[C@@H](CO)C(=O)N[C@H](C(=O)N[C@@H](CC(N)=O)C(=O)N[C@H](C(=O)NCC(=O)N[C@@H](CCCNC(=N)N)C(=O)N[C@@H](CC(N)=O)C(=O)N[C@H](C(=O)N[C@@H](Cc1ccc(O)cc1)C(N)=O)[C@@H](C)O)C(C)C)[C@@H](C)O, synthetic analogue of human amylin; also called compound 88)
2 | 35.6 | 2.07 nM | 45.6 | 94.5 nM | K([γGlu-γGlu-C20 diacid])CNTATCATQRLAEFLRHSSPNFGAIPSSTNVGHNTY-NH2 (disulfide 2-7; N-terminus assumed; SMILES CC[C@H](C)[C@H](NC(=O)[C@H](C)NC(=O)CNC(=O)[C@H](Cc1ccccc1)NC(=O)[C@H](CC(N)=O)NC(=O)[C@@H]1CCCN1C(=O)[C@H](CO)NC(=O)[C@H](CO)NC(=O)[C@H](Cc1c[nH]cn1)NC(=O)[C@H](CCCNC(=N)N)NC(=O)[C@H](CC(C)C)NC(=O)[C@H](Cc1ccccc1)NC(=O)[C@H](CCC(=O)O)NC(=O)[C@H](C)NC(=O)[C@H](CC(C)C)NC(=O)[C@H](CCCNC(=N)N)NC(=O)[C@H](CCC(N)=O)NC(=O)[C@@H](NC(=O)[C@H](C)NC(=O)[C@@H]1CSSC[C@H](NC(=O)[C@@H](N)CCCCNC(=O)CC[C@H](NC(=O)CC[C@H](NC(=O)CCCCCCCCCCCCCCCCCCC(=O)O)C(=O)O)C(=O)O)C(=O)N[C@@H](CC(N)=O)C(=O)N[C@@H]([C@@H](C)O)C(=O)N[C@@H](C)C(=O)N[C@@H]([C@@H](C)O)C(=O)N1)[C@@H](C)O)C(=O)N1CCC[C@H]1C(=O)N[C@@H](CO)C(=O)N[C@@H](CO)C(=O)N[C@H](C(=O)N[C@@H](CC(N)=O)C(=O)N[C@H](C(=O)NCC(=O)N[C@@H](Cc1c[nH]cn1)C(=O)N[C@@H](CC(N)=O)C(=O)N[C@H](C(=O)N[C@@H](Cc1ccc(O)cc1)C(N)=O)[C@@H](C)O)C(C)C)[C@@H](C)O, synthetic analogue of human amylin; also called compound 87)
3 | 4.3 | 0.659 nM | 28.5 | 18.8 nM | KCNTATCATQRLADFLRHSSK([γGlu-γGlu-C20 diacid])NFGAIPSSTNVGSDTY-NH2 (disulfide 2-7; N-terminus assumed; SMILES CC[C@H](C)[C@H](NC(=O)[C@H](C)NC(=O)CNC(=O)[C@H](Cc1ccccc1)NC(=O)[C@H](CC(N)=O)NC(=O)[C@H](CCCCNC(=O)CC[C@H](NC(=O)CC[C@H](NC(=O)CCCCCCCCCCCCCCCCCCC(=O)O)C(=O)O)C(=O)O)NC(=O)[C@H](CO)NC(=O)[C@H](CO)NC(=O)[C@H](Cc1c[nH]cn1)NC(=O)[C@H](CCCNC(=N)N)NC(=O)[C@H](CC(C)C)NC(=O)[C@H](Cc1ccccc1)NC(=O)[C@H](CC(=O)O)NC(=O)[C@H](C)NC(=O)[C@H](CC(C)C)NC(=O)[C@H](CCCNC(=N)N)NC(=O)[C@H](CCC(N)=O)NC(=O)[C@@H](NC(=O)[C@H](C)NC(=O)[C@@H]1CSSC[C@H](NC(=O)[C@@H](N)CCCCN)C(=O)N[C@@H](CC(N)=O)C(=O)N[C@@H]([C@@H](C)O)C(=O)N[C@@H](C)C(=O)N[C@@H]([C@@H](C)O)C(=O)N1)[C@@H](C)O)C(=O)N1CCC[C@H]1C(=O)N[C@@H](CO)C(=O)N[C@@H](CO)C(=O)N[C@H](C(=O)N[C@@H](CC(N)=O)C(=O)N[C@H](C(=O)NCC(=O)N[C@@H](CO)C(=O)N[C@@H](CC(=O)O)C(=O)N[C@H](C(=O)N[C@@H](Cc1ccc(O)cc1)C(N)=O)[C@@H](C)O)C(C)C)[C@@H](C)O, synthetic analogue of human amylin; also called compound 59)
4 | 28 | 2.37 nM | 48.8 | 115 nM | K([γGlu-γGlu-C20 diacid])CNTATCATQRLAEFLRHSSPNFGAIPSSTNVGSRTY-NH2 (disulfide 2-7; N-terminus assumed; SMILES CC[C@H](C)[C@H](NC(=O)[C@H](C)NC(=O)CNC(=O)[C@H](Cc1ccccc1)NC(=O)[C@H](CC(N)=O)NC(=O)[C@@H]1CCCN1C(=O)[C@H](CO)NC(=O)[C@H](CO)NC(=O)[C@H](Cc1c[nH]cn1)NC(=O)[C@H](CCCNC(=N)N)NC(=O)[C@H](CC(C)C)NC(=O)[C@H](Cc1ccccc1)NC(=O)[C@H](CCC(=O)O)NC(=O)[C@H](C)NC(=O)[C@H](CC(C)C)NC(=O)[C@H](CCCNC(=N)N)NC(=O)[C@H](CCC(N)=O)NC(=O)[C@@H](NC(=O)[C@H](C)NC(=O)[C@@H]1CSSC[C@H](NC(=O)[C@@H](N)CCCCNC(=O)CC[C@H](NC(=O)CC[C@H](NC(=O)CCCCCCCCCCCCCCCCCCC(=O)O)C(=O)O)C(=O)O)C(=O)N[C@@H](CC(N)=O)C(=O)N[C@@H]([C@@H](C)O)C(=O)N[C@@H](C)C(=O)N[C@@H]([C@@H](C)O)C(=O)N1)[C@@H](C)O)C(=O)N1CCC[C@H]1C(=O)N[C@@H](CO)C(=O)N[C@@H](CO)C(=O)N[C@H](C(=O)N[C@@H](CC(N)=O)C(=O)N[C@H](C(=O)NCC(=O)N[C@@H](CO)C(=O)N[C@@H](CCCNC(=N)N)C(=O)N[C@H](C(=O)N[C@@H](Cc1ccc(O)cc1)C(N)=O)[C@@H](C)O)C(C)C)[C@@H](C)O, synthetic analogue of human amylin; also called compound 89)

Source: US20140087995A1 (published 2014)
